Assay results taken from paper PMC13132547.

Assays:
Assay in all cases: cryo-EM structure
[1] = biological target: His-tagged BA.1 S (soluble SARS-CoV-2 Omicron BA.1 spike, 6P version) (SARS-CoV-2) (UniProt P0DTC2)
[2] = biological target: StrepII-tagged Wu1 S (soluble SARS-CoV-2 Wuhan-Hu-1 spike, 6P version) (SARS-CoV-2) (UniProt P0DTC2)
[3] = biological target: D7324-tagged Delta S (soluble SARS-CoV-2 Delta spike, 6P version) (SARS-CoV-2) (UniProt P0DTC2)

**Q.** For “His-tagged BA.1 S (soluble SARS-CoV-2 Omicron BA.1 spike, 6P version) (from UniProt P0DTC2 14-1273) (natural protein)”, which stoichiometry N [1] is on record?
**A.** 3

**Q.** For “StrepII-tagged Wu1 S (soluble SARS-CoV-2 Wuhan-Hu-1 spike, 6P version) (from UniProt P0DTC2 14-1273) (natural protein)”, which stoichiometry N [2] is on record?
**A.** 3

**Q.** Which stoichiometry N [3] does the source give for “D7324-tagged Delta S (soluble SARS-CoV-2 Delta spike, 6P version) (from UniProt P0DTC2 14-1273) (natural protein)” here?
**A.** 3
